{"source": "a protein production outcome set (Wang et al. 2014)", "test": "label from the status in PepcDB records"}
{"sequence": "ADVSSSDLATLRRLTNEFQAELATLGTRVDDLEARTSELENQQFSTTTKLNGEAIFSISGATGGEPEGNDAQITFNNRLRLNLTTSFTGKDALITGLQAYNFSAGKSITGTGNVAETLFPNDASILGDSMTNLAWEPQFAGLNPQNLQPSCGNNSLCLYKLLYVRPITDKLTAFIGPKAEVTDAFPAILPFASEGQGALSRFATLNPVLRMSGGTSGTGLASAAGFIYKPNDVIDWRALYGSVNAAIPGNEGFPGTPLGAGLFNGSFIAATQLTLHPNDKLDLGLNYAYSYHQINIAGTGLTGAETRILGDLPLTTPVRFNSFGATVNWRVSPKVNLTGYGAYIMTDQANSGSAYTNLSSWMAGLYFPDAFAKGNAAGILFGQPLYRVDAGNGASLSPANIGDRQTPYQLEAFYRHQINDHISITPGAFVIFNPEGDAQNETTSVFALRTTYTF", "values": [{"measurement": "protein production", "result": "failed"}]}
{"sequence": "MKKILFCLPLLLLALQSCEIEDEYMYDKGLYTIDWDAAADSSSVTLIDRFWNTEENYFNYGNDGSIKDFHYWPQAHAMDVMIDAYNRTGDSKYSDLFDKWYVGIKAKNGGSYWNNFYDDMEWIALTMIRLYEVTDENKYLETSQEMWNEIKTGWNDYAGGGIAWTHDQLWSKNACSNGPAALIAARLYRINGNQEDLDWAVNIYKWERENLFNPATGAIYDNVNGETGELSTLSLSYNQGTFLGAAYELYKITGEESYLKDARKAANFAISNSSMIDTGNNLLRDEGDGDGGLFKGIFMRYYVQLIMEPNLDPIYKKKFITFFNNNAEILWRKGINKLDLLYNTNWAMNNSGNNHLTTQTSGCTLIEAKALFEKSLK", "values": [{"measurement": "protein production", "result": "failed"}]}
{"sequence": "MSLRVIDTHCDALYKLQAGKGKYTFQDAEELDVNFERLIEAKMLLQGFAIFLDEDIPVEHKWKKAVEQVNIFKQHVLHKGGIIHHVKKWCDLENLPEDKIGAMLTLEGIEPIGRDLDKLTQLLDGGVLSVGLTWNNANLAADGIMEERGAGLTRFGKDIIHLLNERKVFTDVSHLSVKAFWETLEQAEFVIASHSNAKAICSHPRNLDDEQIKAMIEHDAMIHVVFYPLFTTNNGVADTEDVIRHIDHICELGGLKNIGFGSDFDGIPDHVKGLEHVGKYQSFLETLEKHYTKEEIEGFASRNFLNHLPKEGHHHHHH", "values": [{"measurement": "protein production", "result": "not failed"}]}
{"sequence": "MSMVGAIILSIIIGIAAFFIHPLLYIGLALMGLIGWQRVRREREHFHTRVLRIRADYVVPFLPGLIAGSLLSLVTIVIGLTVSIDWLWLLLIVYLLTIVTMNIRWISPAYVGAFMIGVVLLAPFVTTGWPWFDERLQSASQIPVLVIMYLTVLLLSAEGMLIAKRGGSFSSPVVVRSKRGKWVGFHRVKRLWLLPVVLFIPEGAIPTFSFWPILTVAGVSLQPLVVPFLIGTDFKIWSSLPKVVSRKVGNQVLGLALTLALIVCITWYVPWLSVLFAIVAIVGREGIHLMAKIKDRSSTSLFTNQGTGCKVLGILPGSPAEKMGIKIGETILRVNGKMVNNEYSFYEALQENSAFCRLEVIDKAGEVRFAQGALYDGEHHQLGVLLVKEDRELQDSVI", "values": [{"measurement": "protein production", "result": "failed"}]}
{"sequence": "MKTMNYSLIRILFALVIGLVLVLWPNTAASYIVITIGVAFLIPGVISLFSFFGRKRSEHEPAPRFPIEGIGSLLFGLWLIVMPEFFADVLMFLLGFILIMGGVQQIASLSMARRWTPVPGIFYLVPSLILIAGVIALFNPTGVRNTAFIIIGISSLVYSLSELINWFKFARRRPKTPVTPHDEDIEDAKIIE", "values": [{"measurement": "protein production", "result": "failed"}]}
{"sequence": "SAAVKDSCGKGEMATGNGRRLHLGIPEAVFVEDVDSFMKQPGNETADTVLKKLDEQYQKYKFMELNLAQKKGRLKGQIPEIKQTLEILKYMQKKKESTNSMETRFLLADNLYCKASVPPTDKVCLWLGANVMLEYDIDEAQALLEKNLSTATKNLDSLEEDLDFLRDQFTTTEVNMARVYNWDVKRRNKDDSTKNKA", "values": [{"measurement": "protein production", "result": "not failed"}]}
{"sequence": "MKILYPTDFSEVSQKALTECVPSIILGIGEGSELILLHVVDITASEIGALELAEVDKEELNNLASQLREKGIKVKPIVRIGIPSLEISEVAKEENVDLIIIPSKGENILRQMLLGSTASNLARITHKPVLLLRYEVENGEIKSLQDCSRIFEKPLVALDLSKCSEKIIETIKDLPGVREAVLFHVVDYGKVEELENNIKNAKEKLSKYGKLLPWKTKIEVQAGIASKGIIGAAIDNNVTLVVIGKKGRSVLKDLLLGSTAERVIRDCKLPTLLIPCE", "values": [{"measurement": "protein production", "result": "failed"}]}
{"sequence": "MVPPRVSLLLRAETVVRPSVSAFPRKLPLVDMTAADALVGTTLAHRYRVESKIANGGMATVFLAHDLRLDRRVALKVMHANLARDPQFVQRFINEALAVAKLSHPNVVQVYDQGSDQGHVYLAMEYVAGQTLRAALKARTRFSPAEALRIMVPILAGLGAAHQAGMVHRDMKPENVLITHDGQIKVADFGLARAAEASQQGLTKTGTLMGTAAYLSPEQITHSTADARSDVYACGIMLYELLTGRQPHTGDSPIAVAYQHVNEDVPRPSRVVPGIPPEVDSLVVRATERDPAYRLANAGQFLAAVFAAQKALDEQPSAAVTSVMEMAPAPAGDTAEDSDNATRTLQGVELPPVEYDDYEDDRPPRPSLRTPLLVATVLLLVVAVGFGWWMVDGRYETVPDLVGVESDEARRDLRMLGFRVQTAEEPAYSDEAPPGTVAATDPEAGSRLLPDTLVTLILSAGPQYVEMPDVEGASVAEARDALKEVGLTDIVEDEITSFDNPPGTVITTKPAPGEKANREESVTLTISAGFPMPNVVGQKVDDARRLLESSDLEVTVVEEHHDEVPEGHVISQEPEAETTVGAGQSVTLTVSSGPELVEVPDIRGWKVDKARKELEERGFEVTVHQVIGNRVGDYNPKGEAPKGSTIEIWTSPFGRERDRDRGREDRLWIGLD", "values": [{"measurement": "protein production", "result": "failed"}]}
{"sequence": "MKKLLTKGQIAILVIFSVLIIDQVIKIWIKTHMYWHESIRITDWFYIYFTENNGMAFGMELFGKLFLTTFRIVAVGLIGWYLYKIVKRGLKTGYIICVSLILTGALGNIIDSVFYGVIFNESTHSQIASFMPDGGGYSTWFYGKVVDMFYFPIIDTNWPTWMPFVGGEHFIFFSPIFNFADAAISCGIIALLLFYSKYLNDSYHHSVTKK", "values": [{"measurement": "protein production", "result": "failed"}]}
{"sequence": "MAFASLFTLPDYIAAVLDDVALMTKAAAKKTAGVAGDDLAPNANRVTGVSAERELPIVWPVAKGSFANKPVLVSAALLLSAFLPQLITPLLTAGGIYLCFEGVEKLLHKFLHRHDAHDDGGETAVNEQAKIKGAIRTDFILSAEIIIIALCVVEQYSLMTRSLVMAAIGIGMTVLVYGIVAVIVKLDDLGMLLMRRPQPRPFARFPARATLERWLDRVFRQPRCRAAFRFDCLRPALSLMNRFGRH", "values": [{"measurement": "protein production", "result": "failed"}]}
{"sequence": "MTAEILVFSLIIPLVVAFILPALKPKAATWLSAISFLIPMFVTLGFLLTTKETIEVPIMSLPAPVGEFYLLADPISNAFGFTICLVSAMVAFYSLPYMKHRFEEMLHDGEIRSIEWEFRKYWFLYNLYAVAMLWLVYAGNFILLYIFLEISLLASFLLIYMYGYGNRQWVAVLYFVWTHIAGVLALLGILIIGFENSTMAFNAVKAVGFTAWLLIFLGMLVKLPGLGPHIWLPWAHAEAPTPVSALLSPLTVGLAGYVLLRVYMIDSSFIDQYRDIIIAYAIVSSIYAGFSVFKQKDYKRLLAYSTVSQMGYVLIALCLGSYGLLGVVIQYISHAFGKSILFMTAGAIIASFHGLRDINRMSGMHEYVPTIANAALLGFMTLSGILTIGMFGEFYILAGLTTIYGFNLAVILAVVVVFIISGLYSFYTMKVIYYGTPAGYEKPKVSRLLDVPLYVVAFFSVAFIFPPLSTALLSGLKVVLGIGGVMP", "values": [{"measurement": "protein production", "result": "failed"}]}
{"sequence": "MAYRKQLTRLKAPYLKRILLDPGRVEDWEKYPWNLPLFRGREFELEFTAPITIIVGENGTGKSTLLEAIGALAGYDEAGGGKGYMPVDHSRAIDKSGAALADNFRCHWLPKVTAGWFFRAESFYSVARYLDEAARESGATPPDFLSWSHGEGFIRFFEERCRRQGIYILDEPESALSPSRQIELLKMLRRMDQSGTAQVIMATHSPLLMACPGARLFRISRFGLEPADFRDTDHFRMLRDFSNDPDGFLAEALYEDEA", "values": [{"measurement": "protein production", "result": "failed"}]}
{"sequence": "MKKIKALALFSGGLDSLLSMKLLIDQGIEVTALHFNIGFGGNKDKREYFENATAQIGAKLLVCDIREQFFNDVLFKPKYGYGKYFNPCIDCHANMFRNAFYKMLELNADFVLSGEVLGQRPKSQRKEALNQVRKLVREVGEEARFDPVLDRTQAGGKKPQFLDELLLRPMSAKLLEPTFMEKKGFVDREKLLDVSGRGRSRQLQMIKDYGLKYYEKPGGGCLLTDIQVSNKIKNLKEYREMVFEDSVIVKNGRYFVLPHNARLVVARNEEENHKLDIQHPLMDKIELLNCKGPLSLVDKNASKEDKELAGRIALGYAKTLKNQAYLIQIGDEKRELYPLDKENAREYLFA", "values": [{"measurement": "protein production", "result": "failed"}]}
{"sequence": "MNFKESRAIYLQIADRICDDILLGQYEEEGRIPSVREYASIVEVNANTVMRSYEYLQSQEVIYNKRGIGFFVASGAKMLIHSLRKEQFLKEEVGSFFRQLYTLGISIKEIEKMYYEFIQRQNQ", "values": [{"measurement": "protein production", "result": "not failed"}]}
